Measured values as given in publication PMC6938701 (Science Advances, 2020).

Molecular target: the molecule itself
Assay: non-reducing SDS-PAGE with Western blot

B1: Recombinant human Prx2 (peroxiredoxin 2) (enzyme, UniProt P32119 2-198, looked up)
chain: ASGNARIGKPAPDFKATAVVDGAFKEVKLSDYKGKYVVLFFYPLDFTFVCPTEIIAFSNRAEDFRKLGCEVLGVSVDSQFTHLAWINTPRKEGGLGPLNIPLLADVTRRLSEDYGVLKTDEGIAYRGLFIIDGKGVLRQITVNDLPVGRSVDEALRLVQAFQYTDEHGEVCPAGWKPGSDTIKPNVDDSKEYFSKHN
  stoichiometry N: 2
